Test results as given in patent US20120294945A1.
Ends that are not written are not given here. HA = hyaluronic acid (HA-TBA), bound to the peptide's terminal amine

Target: Flt1-Fc (R&D systems, Minneapolis, Minn.) (UniProt P17948)
Assay: competition ELISA, VEGF165-coated plate, 500 ng/mL Flt1-Fc, conjugate at rising peptide concentration

Chain of Flt1-Fc (R&D systems, Minneapolis, Minn.) (P17948 27-756 limits assumed): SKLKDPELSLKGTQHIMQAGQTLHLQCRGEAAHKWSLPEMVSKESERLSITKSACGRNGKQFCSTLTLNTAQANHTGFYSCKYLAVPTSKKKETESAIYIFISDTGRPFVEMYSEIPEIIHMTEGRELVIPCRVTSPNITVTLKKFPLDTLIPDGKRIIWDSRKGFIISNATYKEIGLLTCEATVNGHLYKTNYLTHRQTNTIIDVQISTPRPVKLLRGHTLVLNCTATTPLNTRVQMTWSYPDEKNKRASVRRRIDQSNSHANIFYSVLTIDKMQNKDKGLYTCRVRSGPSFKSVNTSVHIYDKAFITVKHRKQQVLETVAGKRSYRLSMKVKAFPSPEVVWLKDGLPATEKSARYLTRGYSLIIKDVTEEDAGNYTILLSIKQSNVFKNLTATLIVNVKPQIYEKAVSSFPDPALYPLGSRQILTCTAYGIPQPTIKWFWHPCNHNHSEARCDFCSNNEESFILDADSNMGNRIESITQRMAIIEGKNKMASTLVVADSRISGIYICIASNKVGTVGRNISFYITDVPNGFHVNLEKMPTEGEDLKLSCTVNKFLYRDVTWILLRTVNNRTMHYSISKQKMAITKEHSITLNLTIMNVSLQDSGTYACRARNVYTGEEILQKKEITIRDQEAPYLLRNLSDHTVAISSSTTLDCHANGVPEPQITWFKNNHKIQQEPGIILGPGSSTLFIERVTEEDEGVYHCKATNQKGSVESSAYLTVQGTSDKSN

inhibition of the bonding between VEGF165 and Flt1-Fc (luminescence, positive control = 100%): 32%
B1: hyaluronic acid-peptide conjugate with a lower peptide content of Preparation Example 3 (HA-GGNQWFI) (peptide)
peptide: {HA}-GGNQWFI
modifications: also: 20 peptides conjugated per HA-TBA molecule
